T1: hu N(A2-B2)A-avi-His (human, biotin on the avi tag where used biotinylated)
T1 construct: chimeric soluble antigen; also called hu N(A2-B2)A-avi-His B; human CEA (A2 domain)
T1 chain: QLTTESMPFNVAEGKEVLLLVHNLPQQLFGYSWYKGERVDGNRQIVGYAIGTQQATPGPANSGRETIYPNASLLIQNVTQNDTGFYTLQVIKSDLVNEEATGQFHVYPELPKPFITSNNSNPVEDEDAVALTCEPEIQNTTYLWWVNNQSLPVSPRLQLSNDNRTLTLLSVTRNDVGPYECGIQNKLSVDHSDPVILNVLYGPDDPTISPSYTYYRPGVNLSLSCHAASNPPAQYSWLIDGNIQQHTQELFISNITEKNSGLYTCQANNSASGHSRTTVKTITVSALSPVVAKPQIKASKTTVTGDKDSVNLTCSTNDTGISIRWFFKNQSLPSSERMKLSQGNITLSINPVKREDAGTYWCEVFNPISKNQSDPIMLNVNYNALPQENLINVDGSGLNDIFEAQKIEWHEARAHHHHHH

T2: NA(B2)A-avi-His (human, biotin on the avi tag)
T2 construct: chimeric soluble control antigen without the CEACAM5 A2 domain
T2 chain: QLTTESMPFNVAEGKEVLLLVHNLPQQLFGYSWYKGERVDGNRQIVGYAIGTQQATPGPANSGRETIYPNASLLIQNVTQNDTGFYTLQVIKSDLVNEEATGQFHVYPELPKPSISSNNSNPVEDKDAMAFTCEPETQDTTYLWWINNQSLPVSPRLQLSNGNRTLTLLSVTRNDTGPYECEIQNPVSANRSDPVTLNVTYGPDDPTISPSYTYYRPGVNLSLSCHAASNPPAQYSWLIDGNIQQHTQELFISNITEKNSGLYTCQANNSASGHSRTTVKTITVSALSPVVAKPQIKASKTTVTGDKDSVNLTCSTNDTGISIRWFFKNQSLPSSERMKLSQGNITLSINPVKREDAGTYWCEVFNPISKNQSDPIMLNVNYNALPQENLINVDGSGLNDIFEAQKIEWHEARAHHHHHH


How the values were obtained:
hu N(A2-B2)A-avi-His [1] = target: T1, hu N(A2-B2)A-avi-His; experiment: SPR (ProteOn XPR36), purified Fab, biotinylated antigen on NLC chip
Method: Affinity (KD) of purified Fab fragments was measured by surface plasmon resonance using a Proteon XPR36 machine using the same setup as described before.
About 2000, 1000, 500, and 250 RU of biotinylated N(A2B2)A-avi-His were immobilized on 4 channels of a Streptavidin-coated NLC chip in vertical orientation. As a control for non-specific binding, 2000 RU of biotinylated NA(B2)A-avi-His protein was immobilized on channel 5. For the determination of the affinity (KD) of the purified clones, injection direction was changed to horizontal orientation. Two-fold dilution series of purified Fab fragments (varying concentration ranges between 100 and 3 nM) were injected simultaneously at 100 μl/min along separate channels 1-5, with association times of 100 s, and dissociation times of 1200 s. Buffer (PBST) was injected along the sixth channel to provide an “in-line” blank for referencing. Regeneration was performed with 10 mM glycine pH 1.5 for 35 s at 50 μl/min (vertical orientation).
Association rate constants (kon) and dissociation rate constants (koff) were calculated using a simple one-to-one Langmuir binding model in ProteOn Manager v3.1 software by simultaneously fitting the association and dissociation sensorgrams. The equilibrium dissociation constant (KD) was calculated as the ratio koff/kon.

hu N(A2-B2)A-avi-His [2] = target: T1, hu N(A2-B2)A-avi-His; experiment: SPR (ProteOn XPR36), Fab in bacterial supernatant, biotinylated antigen on NLC chip
Excerpt: (§1) For this experiment, about 2000, 1000, and 500 RU of biotinylated N(A2B2)A-avi-His were immobilized on 3 channels using a Streptavidin-coated NLC chip in vertical orientation. As a control for non-specific binding, 2000 RU of biotinylated NA(B2)A-avi-His protein was immobilized on channel 4. For the off-rate analysis of the identified ELISA-positive clones, injection direction was changed to horizontal orientation. Before injection, each Fab-containing bacterial supernatant was filtered and 3-fold diluted with PBS. The association time was 100 s at 100 μl/minute and dissociation times were either 600 or 1200 s. Bacterial supernatant without Fab fragment was used for referencing. Regeneration was performed with 10 mM glycine pH 1.5 for 35 s at 50 μl/min (vertical orientation).
(§2) Dissociation rate constants (koff) were calculated using a simple one-to-one Langmuir binding model in ProteOn Manager v3.1 software by simultaneously fitting the sensorgrams. […] Shortlisted clones were re-evaluated in an additional SPR experiments under the same conditions. […] Bacterial supernatant without Fab fragment was used for referencing.

NA(B2)A-avi-His = target: T2, NA(B2)A-avi-His; experiment: SPR (ProteOn), Fab in bacterial supernatant, 2000 RU antigen
Excerpt: as §1, §2

hu N(A2-B2)A-avi-His [3] = target: T1, hu N(A2-B2)A-avi-His; experiment: SPR (Biacore T200), antigen on CM5 chip, Fab as analyte
Excerpt: Data were double-referenced against the unimmobilized flow cell 1 and a zero concentration of the analyte. The sensorgrams of the analytes were fitted to a simple 1:1 Langmuir interaction model.

Row | Binder | Kd (hu N(A2-B2)A-avi-His [1]) | koff (hu N(A2-B2)A-avi-His [1]) | kon (hu N(A2-B2)A-avi-His [1]) | koff (hu N(A2-B2)A-avi-His [2]) | binding result (NA(B2)A-avi-His) | Kd (hu N(A2-B2)A-avi-His [3])
1 | A5H1EL1D Fab (phagemid-derived) (Fab, V domains shown, Flag tag; also called parental humanized clone A5H1EL1D) VH: EVQLLESGGGLVQPGGSLRLSCAASGFTFTDYYMNWVRQAPGKGLEWLGFIGNKANAYTTEYSASVKGRFTISRDKSKNTLYLQMNSLRAEDTATYYCTRDRGLRFYFDYWGQGTTVTVSS VL: EIVLTQSPATLSLSPGERATLSCRASSSVTYIHWYQQKPGQAPRSWIYATSNLASGIPARFSGSGSGTDFTLTISSLEPEDFAVYYCQHWSSKPPTFGQGTKLEIK | 2.3 nM | 0.000248 s⁻¹ | 108000 M⁻¹ s⁻¹ | 0.00031 s⁻¹ | – | –
2 | P006.038 Fab (Fab, V domains shown, Fab from E. coli (supernatant or IMAC-purified); Flag tag; also called CEA (P006.038)) VH: EVQLLESGGGLVQPGGSLRLSCAASGFTFTDYYMNWVRQAPGKGLEWLGFIGNKANAYTTEYSASVKGRFTISRDKSKNTLYLQMNSLRAEDTATYYCTRDRGIRFGFDYWGQGTTVTVSS VL: EIVLTQSPATLSLSPGERATLSCRASSSVTYIHWYQQKPGQAPRSWIYATSNLASGIPARFSGSGSGTDFTLTISSLEPEDFAVYYCQHWSSVPPTFGQGTKLEIK | 0.25 nM | 5.78e-05 s⁻¹ | 225000 M⁻¹ s⁻¹ | 7.41e-05 s⁻¹ | no binding | –
3 | P005.097 Fab (Fab, V domains shown, Fab from E. coli (supernatant or IMAC-purified); Flag tag; also called CEA (P005.097)) VH: EVQLLESGGGLVQPGGSLRLSCAASGFTFTDYYMNWVRQAPGKGLEWLGFIGNKANAYTTEYSASVKGRFTISRDKSKNTLYLQMNSLRAEDTATYYCTRDRGLRFSFDYWGQGTTVTVSS VL: EIVLTQSPATLSLSPGERATLSCRASSSVTYIHWYQQKPGQAPRSWIYATSNLASGIPARFSGSGSGTDFTLTISSLEPEDFAVYYCQHWSSQPPTFGQGTKLEIK | 0.91 nM | 8.54e-05 s⁻¹ | 94000 M⁻¹ s⁻¹ | 8.87e-05 s⁻¹ | no binding | –
4 | P1AE4140 (Fab, V domains shown, Fab fragment; also called Fab derived from P1AE2177) VH: EVQLLESGGGLVQPGGSLRLSCAASGFTFTDYYMNWVRQAPGKGLEWVGFIGNKANGYTTEYSASVKGRFTISRDNSKNTLYLQMNSLRAEDTAVYYCTRDRGLRFYFDYWGQGTTVTVSS VL: EIVLTQSPATLSLSPGERATLSCRASSSVTYIHWYQQKPGQAPRSWIYATSNLASGIPARFSGSGSGTDFTLTISSLEPEDFAVYYCQHWSSKPPTFGQGTKLEIK | – | – | – | – | – | 7.62 nM
5 | P1AE4142 (Fab, V domains shown, Fab fragment; also called Fab derived from P1AE2181) VH: EVQLLESGGGLVQPGGSLRLSCAASGFTFTDYYMNWVRQAPGKGLEWVGFIGNKANGYTTEYSASVKGRFTISRDKSKNTLYLQMNSLRAEDTAVYYCARDRGLRFYFDYWGQGTTVTVSS VL: EIVLTQSPATLSLSPGERATLSCRASSSVTYIHWYQQKPGSSPKSWIYATSNLASGIPARFSGSGSGTDFTLTISSLEPEDFAVYYCQHWSSKPPTFGQGTKLEIK | – | – | – | – | – | 2.64 nM
6 | P1AE4141 (Fab, V domains shown, Fab fragment; also called Fab derived from P1AE2179) VH: EVQLLESGGGLVQPGGSLRLSCAASGFTFTDYYMNWVRQAPGKGLEWVGFIGNKANGYTTEYSASVKGRFTISRDKSKNTLYLQMNSLRAEDTAVYYCARDRGLRFYFDYWGQGTTVTVSS VL: QTVLTQSPATLSLSPGERATLSCRASSSVTYIHWYQQKPGSSPKSWIYATSNLASGIPARFSGSGSGTDYTLTISSLEPEDFAVYYCQHWSSKPPTFGQGTKLEIK | – | – | – | – | – | 1.83 nM
7 | P002.139 Fab (Fab, V domains shown, Fab from E. coli (supernatant or IMAC-purified); Flag tag; also called CEA (P002.139)) VH: EVQLLESGGGLVQPGGSLRLSCAASGFYFTDYAMNWVRQAPGKGLEWLGVISNKANAYTTEYSASVKGRFTISRDKSKNTLYLQMNSLRAEDTATYYCTRDRGLRFYFDYWGQGTTVTVSS VL: EIVLTQSPATLSLSPGERATLSCHASSSVTYIHWYQQKPGQAPRSWIYATSNLASGIPARFSGSGSGTDFTLTISSLEPEDFAVYYCQHWSSKPPTFGQGTKLEIK | 0.63 nM | 6.53e-05 s⁻¹ | 105000 M⁻¹ s⁻¹ | 6.47e-05 s⁻¹ | no binding | –
8 | P005.103 Fab (Fab, V domains shown, Fab from E. coli (supernatant or IMAC-purified); Flag tag; also called CEA (P005.103)) VH: EVQLLESGGGLVQPGGSLRLSCAASGFTFTDYYMNWVRQAPGKGLEWLGFIGNKANAYTTEYSASVKGRFTISRDKSKNTLYLQMNSLRAEDTATYYCTRDRGIRFYFDYWGQGTTVTVSS VL: EIVLTQSPATLSLSPGERATLSCRASSSVTYIHWYQQKPGQAPRSWIYATSNLASGIPARFSGSGSGTDFTLTISSLEPEDFAVYYCQHWSSISPTFGQGTKLEIK | 0.5 nM | 4.99e-05 s⁻¹ | 100000 M⁻¹ s⁻¹ | 5.37e-05 s⁻¹ | no binding | –
9 | P005.102 Fab (Fab, V domains shown, Fab from E. coli (supernatant or IMAC-purified); Flag tag; also called CEA (P005.102)) VH: EVQLLESGGGLVQPGGSLRLSCAASGFTFTDYYMNWVRQAPGKGLEWLGFIGNKANAYTTEYSASVKGRFTISRDKSKNTLYLQMNSLRAEDTATYYCTRDRGIRFQFDYWGQGTTVTVSS VL: EIVLTQSPATLSLSPGERATLSCRASSSVTYIHWYQQKPGQAPRSWIYATSNLASGIPARFSGSGSGTDFTLTISSLEPEDFAVYYCQHWSSKSPTFGQGTKLEIK | 0.29 nM | 3.92e-05 s⁻¹ | 134000 M⁻¹ s⁻¹ | 4.24e-05 s⁻¹ | no binding | –
10 | P1AE4143 (Fab, V domains shown, Fab fragment; also called Fab derived from P1AE2182) VH: EVQLLESGGGLVQPGGSLRLSCAASGFTFTDYYMNWVRQAPGKGLEWVGFIGNKANGYTTEYSASVKGRFTISRDKSKNTLYLQMNSLRAEDTAVYYCARDRGLRFYFDYWGQGTTVTVSS VL: EIVLTQSPATLSLSPGERATLSCRASSSVTYIHWYQQKPGQAPRSWIYATSNLASGIPARFSGSGSGTDFTLTISSLEPEDFAVYYCQHWSSKPPTFGQGTKLEIK | – | – | – | – | – | 2.92 nM
11 | P001.177 Fab (Fab, V domains shown, Fab from E. coli (supernatant or IMAC-purified); Flag tag; also called CEA (P001.177)) VH: EVQLLESGGGLVQPGGSLRLSCAASGFYFTDYYMNWVRQAPGKGLEWLGFISNKANAYTTEYSASVKGRFTISRDKSKNTLYLQMNSLRAEDTATYYCTRDRGLRFYFDYWGQGTTVTVSS VL: EIVLTQSPATLSLSPGERATLSCRASSSVTYIHWYQQKPGQAPRSWIYATSNLASGIPARFSGSGSGTDFTLTISSLEPEDFAVYYCQHWSSKPPTFGQGTKLEIK | 0.29 nM | 7.85e-05 s⁻¹ | 267000 M⁻¹ s⁻¹ | 9.81e-05 s⁻¹ | no binding | –
